Assay results published in US20150080295A1 (ZEALAND PHARMA A S, published 2015).
Numbered stars: 1 amine (or outer) side, 2 acyl side, 3 side chain; on linkers, the order of the positions; unused ones are H or OH. Square brackets hold non-standard residues; d marks the D form. Side chains are listed from the residue outwards. Ends that are not written are not given here. * marks the point of attachment. γGlu = O=C(O)[C@H](CCC(=O)[*:2])N[*:1]; Palmitoyl = CCCCCCCCCCCCCCCC(=O)*; Aib = CC(C)(N)C(=O)O

Molecular target: human glucagon receptor (human, UniProt P47871 26-477)
Experiment: cell-based or functional assay

Row | Binder | GLUR EC50 (nM), cAMP formation in HEK293 cells expressing human Glucagon-R
1 | H-HSQGTFTSDYSKYLDKKAAHDFVEWLLRA-NH2 [L006-0239] | 1.05 nM
2 | H-HSQGTFTSDYSKYLDSKAAHDFVEWLLRA-OH [L006-0296] | 0.12 nM
3 | H-HSQGTFTSDYSKYLDSKAAQDFVQWLMNT-NH2 [ZP2667] | 0.07 nM
4 | H-HSQGTFTSDYSKYLDSKAAHDFVEWLMNT-NH2 [L006-0176] | 0.57 nM
5 | H-HSQGTFTSDYSKYLDSLAAQDFVQWLLNT-NH2 [ZP2753] | 0.08 nM
6 | H[Aib]QGTFTSDYSKYLDSKAAHDFVEWLLRA-NH2 [ZP2867] | 0.06 nM
7 | HSQGTFTSDYSKYLDSK([γGlu-Palmitoyl])AAHDFVEWLLRA-NH2 [ZP2872] | 0.085 nM
8 | H-HSQGTFTSDYSKYLDSKAAHDFVQWLLRA-NH2 [L006-0172] | 0.37 nM
9 | H-HSQGTFTSDYSKYLDSRAAHDFVEWLLRA-NH2 [L006-0169] | 152 nM
10 | H-HSQGTFTSDYSKYLDSKAAQDFVEWLLRA-NH2 [L006-0171] | 0.78 nM
11 | H-HSQGTFTSDYSKYLDSKAAHDFVEWLLRA-NH2 [ZP2669] | 0.05 nM
12 | H[dS]QGTFTSDYSKYLDSKAAHDFVEWLLRA-NH2 [ZP2866] | 0.11 nM
13 | H-HSQGTFTSDYSKYLDSKAARDFVRWLKLA-NH2 [ZP2668] | 0.8 nM
14 | H-HSQGTFTSDYSKYLDSKRAHDFVEWLLRA-NH2 [L006-0170] | 0.79 nM
15 | H-HSQGTFTSDYSKYLDSKAAKDFVEWLLRA-NH2 [L006-0208] | 0.55 nM
16 | H-HSQGTFTSDYSKYLDSKAAHDFVKWLLRA-NH2 [L006-0212] | 1.23 nM

Molecular target: human glucagon-like peptide 1 receptor (human, UniProt P43220 24-463)
Sequence (P43220 24-463): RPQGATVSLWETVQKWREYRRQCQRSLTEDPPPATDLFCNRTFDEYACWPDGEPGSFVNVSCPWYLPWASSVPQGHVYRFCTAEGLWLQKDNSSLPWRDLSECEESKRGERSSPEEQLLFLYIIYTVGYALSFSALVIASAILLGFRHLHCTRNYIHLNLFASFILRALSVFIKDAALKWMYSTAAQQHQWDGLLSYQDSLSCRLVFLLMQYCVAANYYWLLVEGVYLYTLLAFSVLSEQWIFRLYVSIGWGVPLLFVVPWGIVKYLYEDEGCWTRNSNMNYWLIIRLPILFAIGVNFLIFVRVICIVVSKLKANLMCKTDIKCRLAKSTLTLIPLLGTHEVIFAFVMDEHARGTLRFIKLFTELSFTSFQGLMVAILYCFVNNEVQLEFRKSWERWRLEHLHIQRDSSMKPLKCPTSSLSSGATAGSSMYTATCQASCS
Experiment: cell-based or functional assay

Row | Binder | GLP-1R EC50 (nM), cAMP formation in HEK293 cells expressing human GLP-1-R
17 | H-HSQGTFTSDYSKYLDKKAAHDFVEWLLRA-NH2 [L006-0239] | 0.98 nM
18 | H-HSQGTFTSDYSKYLDSKAAHDFVEWLLRA-OH [L006-0296] | 0.14 nM
19 | H-HSQGTFTSDYSKYLDSKAAQDFVQWLMNT-NH2 [ZP2667] | 0.02 nM
20 | H-HSQGTFTSDYSKYLDSKAAHDFVEWLMNT-NH2 [L006-0176] | 0.44 nM
21 | H-HSQGTFTSDYSKYLDSLAAQDFVQWLLNT-NH2 [ZP2753] | 0.04 nM
22 | H[Aib]QGTFTSDYSKYLDSKAAHDFVEWLLRA-NH2 [ZP2867] | 0.08 nM
23 | HSQGTFTSDYSKYLDSK([γGlu-Palmitoyl])AAHDFVEWLLRA-NH2 [ZP2872] | 0.103 nM
24 | H-HSQGTFTSDYSKYLDSKAAHDFVQWLLRA-NH2 [L006-0172] | 0.21 nM
25 | H-HSQGTFTSDYSKYLDSRAAHDFVEWLLRA-NH2 [L006-0169] | 0.99 nM
26 | H-HSQGTFTSDYSKYLDSKAAQDFVEWLLRA-NH2 [L006-0171] | 0.37 nM
27 | H-HSQGTFTSDYSKYLDSKAAHDFVEWLLRA-NH2 [ZP2669] | 0.05 nM
28 | H[dS]QGTFTSDYSKYLDSKAAHDFVEWLLRA-NH2 [ZP2866] | 0.09 nM
29 | H-HSQGTFTSDYSKYLDSKAARDFVRWLKLA-NH2 [ZP2668] | 0.08 nM
30 | H-HSQGTFTSDYSKYLDSKRAHDFVEWLLRA-NH2 [L006-0170] | 0.5 nM
31 | H-HSQGTFTSDYSKYLDSKAAKDFVEWLLRA-NH2 [L006-0208] | 0.57 nM
32 | H-HSQGTFTSDYSKYLDSKAAHDFVKWLLRA-NH2 [L006-0212] | 0.76 nM
